From publication PMC4103834, “Structure-Based Rational Design to Enhance the Solubility and Thermostability of a Bacterial Laccase Lac15” (PLoS ONE, 2014)

System: COc1cc(C=NN=Cc2cc(OC)c(O)c(OC)c2)cc(OC)c1O
Experiment: purified protein
Conditions: standard assay: 50 mM Na2HPO4-KH2PO4 pH 7.5, 100 µM CuSO4, 45 °C, conditions of the Km series not given separately

| Substance | Km [µM] | kcat [s⁻¹] |
| --- | --- | --- |
| Lac15 (uncultured bacterium) | 3.74 ± 0.37 | 1.39 ± 0.11 |
| Lac15-His6 (uncultured bacterium) | 4.53 ± 0.21 | 1.35 ± 0.09 |
| Lac15 (uncultured bacterium; DEL323-332) | 6.34 ± 0.19 | 1.69 ± 0.13 |
